Results from US20090280473A1.

What was measured:
Test in all cases: cell-based or functional assay
[1] = molecular target: Semliki Forest virus E1 fusion protein, low pH-induced trimeric form (full-length viral E1 of cell-b (Semliki Forest virus) (UniProt P03315))
[2] = molecular target: Dengue virus 1 (DV1, strain Western Pacific) E fusion protein (Dengue virus 1) (UniProt P17763)
[3] = molecular target: Dengue virus 2 (DV2, strain New Guinea C) E fusion protein (Dengue virus 2) (UniProt P14340)

Substance: DIII (SFV E1 domain III, Met + residues 291-383) (from UniProt P03315 1106-1198)
- percent inhibition of SFV fusion in the FIA at ˜80 µM [1]: 60 % inhibition

Substance: DIIIS (SFV E1 domain III plus stem, Met + residues 291-412) (from UniProt P03315 1106-1227)
- inhibition of SFV fusion with BHK cells, fusion-infection assay (FIA) [1]: 6 µM

Substance: DV2DIIIH1 (dengue virus 2 E domain III plus helix 1 of the stem, residues 296-415) (from UniProt P14340 576-695)
- percent inhibition of DV1 fusion in the FIA at 50 µM [2]: 70 % inhibition
- percent inhibition of DV2 fusion in the FIA at 50 µM [3]: 70 % inhibition
